Experimental data taken from patent US7799901B2, “Modulators of the function of FAS receptors and other proteins” (Yeda Research and Development Co. Ltd., priority 1995, dated 2010).

B1: MACHα1 (C360S): MACHα1 mutant in which the catalytic cysteine Cys360 is replaced by Ser (protein)
chain: MDFSRNLYDIGEQLDSEDLASLKFLSLDYIPQRKQEPIKDALMLFQRLQEKRMLEESNLSFLKELLFRINRLDLLITYLNTRKEEMERELQTPGRAQISAYRVMLYQISEEVSRSELRSFKFLLQEEISKCKLDDDMNLLDIFIEMEKRVILGEGKLDILKRVCAQINKSLLKIINDYEEFSKERSSSLEGSPDEFSNGEELCGVMTISDSPREQDSESQTLDKVYQMKSKPRGYCLIINNHNFAKAREKVPKLHSIRDRNGTHLDAGALTTTFEELHFEIKPHDDCTVEQIYEILKIYQLMDHSNMDCFICCILSHGDKGIIYGTDGQEAPIYELTSQFTGLKCPSLAGKPKVFFIQASQGDNYQKGIPVETDSEEQPYLEMDLSSPQTRYIPDEADFLLGMATVNNCVSYRNPAEGTWYIQSLCQSLRERCPRGDDILTILTEVNYEVSNKDDKKNMGKQMPQPTFTLRKKLVFPSD
B2: MACHβ1: MACH isoform, cDNA SEQ ID NO: 4, amino acid SEQ ID NO: 5; lacks the CED3/ICE homology region (protein)
chain: MDFSRNLYDIGEQLDSEDLASLKFLSLDYIPQRKQEPIKDALMLFQRLQEKRMLEESNLSFLKELLFRINRLDLLITYLNTRKEEMERELQTPGRAQISAYRVMLYQISEEVSRSELRSFKFLLQEEISKCKLDDDMNLLDIFIEMEKRVILGEGKLDILKRVCAQINKSLLKIINDYEEFSKERSSSLEGSPDEFSNDFGQSLPNEKQTSGILSDHQQSQFCKSTGESAQTSQH

Key:
MACHβ1 = molecular target: T1, MACHβ1 (Homo sapiens, UniProt Q14790); assay: Two-hybrid β-galactosidase filter assay (FIG. 5), binding to MACHβ1; conditions: two hybrid test
T1 construct: a construct encoding only the ORF-B (MACH B) region; expressed in transfected cells; host or cells: SFY526 yeast
Description: The yeast two-hybrid test was further applied to evaluate the specificity of binding of MACH to MORT-1, in particular, to define the region in MORT-1 to which MACH binds, as well as to determine which of the MACH ORFs interacts with MORT-1, the procedures being as set forth herein above in Examples 1 and 2. Briefly, various MORT-1 and MACH constructs were prepared for testing the interaction of the proteins encoded by the Gal4 DNA-binding domain and activation domain constructs within transfected SFY526 yeast cells as assessed by the β-galactosidase expression filter assay. The DNA-binding domain constructs were prepared in pGBT9 vectors and the activation domain constructs were prepared in pGAD-GM vectors. For the activation domain constructs, the full-length MACH cDNA was used (MACH), as was a construct encoding only the ORF-B (MACH B) region. Control activation domain constructs were those containing the full-length MORT-1 coding sequence (MORT 1, positive control) and those having no inserts, i.e., “empty” vectors (pGAD-GM). For the DNA-binding domain constructs, the full-length MORT-1 cDNA was used (MORT 1), as were constructs encoding only the MORT-1 […] (MORT-1DD aa 130-245). […] In the assay, the development of color was determined, where the greater the color development, the greater the interaction between the constructs encoded by the DNA-binding domain and activation domain; Color development was depicted by symbols, where “+++” and “+” indicate the development of a strong color within 30 and 90 min. of the assay, respectively, and “−−−” indicates the lack of development of color within 24 hrs. of the assay. […]
In FIG. 5, there is shown the results of the interaction of MORT-1 and MACH within transfected yeast cells. […] Their interaction was assessed by a β-galactosidase expression filter assay as described in Boldin et al (1995b). […]

[1] = system: human embryonic kidney 293-EBNA cells; assay: Cell death on overexpression of MACH isoforms in 293-EBNA cells; assay type: cell-based; conditions: β-galactosidase-expressing cells with apoptopic morphology, 20 h after transfection
Description: To explore the involvement of MACH in cell-death induction, the effect of overexpression of various MACH isoforms on cell viability was examined. The test was performed by transfecting MACH expression vectors together with a β-galactosidase expression vector as a transfection marker into human embryonic kidney 293-EBNA cells and breast carcinoma MCF7 cells.
In brief, 293-EBNA cells, MCF7 human breast carcinoma cells and HeLa HtTA-1 cells were grown in Dulbecco's modified Eagle's minimal essential medium supplemented with 10% fetal calf serum, nonessential amino acids, 100 U/ml penicillin and 100 μg/ml streptomycin. Cell tissue culture dishes (5×10^5 293-EBNA cells, 3×10^5 s MCF7 cells or 3×10^5 HeLa cells in 6-cm dishes) were transiently transfected, using the calcium phosphate precipitation method, with the cDNAs of the indicated proteins together with the β-galactosidase expression vector. In the experiments presented in FIGS. 14A-D and 15, each dish was transfected with 3.5 μg of the indicated MACH construct and 1.5 μg of pSV-β-gal. In the experiments presented in FIGS. 16A-D and 17-19, each dish was transfected with 2.5 μg of the indicated MACH or MORT1 construct (or, as control, empty vector) and 1.5 μg of pSV-β-gal. The cells were rinsed 6 to 10 h after transfection. The 293-EBNA and MCF7 cells were incubated for a further 18 h without additional treatment. The HeLa cells were incubated for 26 h after transfection and-then for 5 h in the presence of either anti-Fas.APO1 antibody (CH11, 0.5 μg/ml) or TNF (100 ng/ml), together with cycloheximide (10 μg/ml). The extent of cell death at the end of the incubation periods was assessed by determination of β-galactosidase expression, as described by Kumar et al, 1994.
In particular, FIGS. 14A-D show the morphology of human embryonic kidney 293-EBNA cells transiently expressing the indicated MACH isoforms. The arrows (FIG. 14B) point to apoptopic cells. Photographs were taken 26 h after transfection. […] Data are from three independent experiments with the 293-EBNA cells and two independent experiments with the MCF7 cells.

| Molecule | binding to MACHβ1 in transfected yeast (MACHβ1) | cell death of transfected 293-EBNA cells [1] |
| --- | --- | --- |
| MACHα1: MACH isoform, cDNA SEQ ID NO: 14, amino acid SEQ ID NO: 7; contains CED3/ICE homology region | scored clearly positive | massive cell death |
| B1 | bound | No death |
| B2 | self-associated | some slight cell death |
